The values below come from patent US20250154231A1.

What all share (assay): cell-based or functional assay
The target of assay [1] is SARS-CoV-2 Omicron BA.1 spike (S) protein, pseudovirus construct (SARS-CoV-2) (UniProt P0DTC2).
The target of assay [2] is SARS-CoV-2 Omicron BA.2 spike (S) protein, pseudovirus construct (SARS-CoV-2) (UniProt P0DTC2).
Assay [3] has as its target SARS-CoV-2 Omicron BA.1.1 spike (S) protein, pseudovirus construct (SARS-CoV-2) (UniProt P0DTC2).
Assay [4] addresses SARS-CoV-2 Omicron BA.3 spike (S) protein, pseudovirus construct (SARS-CoV-2) (UniProt P0DTC2).
Assay [5] has as its target SARS-CoV-2 Victoria spike (S) protein (SARS-CoV-2) (UniProt P0DTC2).
Assay [6] concerns the target SARS-CoV-2 Alpha spike (S) protein (SARS-CoV-2) (UniProt P0DTC2).
Assay [7] has as its target SARS-CoV-2 Omicron BA.1 spike (S) protein of the live isolate (SARS-CoV-2) (UniProt P0DTC2).
Assay [8] has as its target SARS-CoV-2 Gamma spike (S) protein (SARS-CoV-2) (UniProt P0DTC2).
The target of assay [9] is SARS-CoV-2 Beta spike (S) protein (SARS-CoV-2) (UniProt P0DTC2).
The target in assay [10] is SARS-CoV-2 Delta spike (S) protein (SARS-CoV-2) (UniProt P0DTC2).
Assay [11] has as its target SARS-CoV-2 Omicron BA.2 spike (S) protein (SARS-CoV-2) (UniProt P0DTC2).
In assay [12] the target is SARS-CoV-2 Omicron BA.1.1 spike (S) protein (SARS-CoV-2) (UniProt P0DTC2).
Assay [13] deals with SARS-CoV-2 spike (S) protein, Omicron BA.2.75 (SARS-CoV-2) (UniProt P0DTC2).
The target of assay [14] is SARS-CoV-2 spike (S) protein, Omicron BA.4.6 (SARS-CoV-2) (UniProt P0DTC2).
The target in assay [15] is SARS-CoV-2 spike (S) protein, Omicron BA.2.3.20 (SARS-CoV-2) (UniProt P0DTC2).
For assay [16], the target named is SARS-CoV-2 spike (S) protein, Omicron BA.2 (SARS-CoV-2) (UniProt P0DTC2).
In assay [17] the target is SARS-CoV-2 spike (S) protein, Omicron BA.4/5 (SARS-CoV-2) (UniProt P0DTC2).
In assay [18] the target is SARS-CoV-2 spike (S) protein, Victoria strain (SARS-CoV-2) (UniProt P0DTC2).
Assay [19] addresses SARS-CoV-2 spike (S) protein, Omicron BJ.1 (SARS-CoV-2) (UniProt P0DTC2).
The target of assay [20] is SARS-CoV-2 spike (S) protein, Omicron BA.2.75.2 (SARS-CoV-2) (UniProt P0DTC2).
Assay [21] concerns the target SARS-CoV-2 spike (S) protein, Omicron BA.3 (SARS-CoV-2) (UniProt P0DTC2).
For assay [22], the target named is SARS-CoV-2 spike (S) protein, Omicron BA.1 (SARS-CoV-2) (UniProt P0DTC2).
The target in assay [23] is SARS-CoV-2 spike (S) protein, Omicron BA.4.6 (SARS-CoV-2) (UniProt P0DTC2). This is another data set of the same source.
The target of assay [24] is SARS-CoV-2 spike (S) protein, Omicron BA.1.1 (SARS-CoV-2) (UniProt P0DTC2).
In assay [25] the target is SARS-CoV-2 spike (S) protein, Omicron BA.2 (SARS-CoV-2) (UniProt P0DTC2). The source holds these as a separate data set.
For assay [26], the target named is SARS-CoV-2 spike (S) protein, Omicron BA.4/5 (SARS-CoV-2) (UniProt P0DTC2). The source holds these as a separate data set.
Assay [27] deals with SARS-CoV-2 spike (S) protein, Victoria strain (SARS-CoV-2) (UniProt P0DTC2). This is another data set of the same source.
Assay [28] has as its target SARS-CoV-2 spike (S) protein, Omicron BA.2.75 (SARS-CoV-2) (UniProt P0DTC2). This is another data set of the same source.

Read-outs that look alike come from different tables or passages of the source.

Known Antibody D (AZD8895), sequence (VH): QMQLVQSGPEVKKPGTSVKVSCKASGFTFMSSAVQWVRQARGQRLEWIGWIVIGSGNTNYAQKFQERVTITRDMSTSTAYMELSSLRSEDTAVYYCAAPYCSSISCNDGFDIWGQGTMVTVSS
Known Antibody D (AZD8895), sequence (VL): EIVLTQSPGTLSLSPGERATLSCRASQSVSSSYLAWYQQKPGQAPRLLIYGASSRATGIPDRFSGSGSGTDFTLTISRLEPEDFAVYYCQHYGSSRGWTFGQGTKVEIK

On to Known Antibody C (AZD1061), for which the IC50 (ug/ml), pseudovirus in assay [1] is 0.308 µg/mL; in assay [2], 0.008 µg/mL; in assay [3], > 10 µg/mL; in [4] it was 0.019 µg/mL; in [5], 0.002 µg/mL.

As to AZD7442 (antibody), the IC50, authentic virus neutralization is 0.007 µg/mL in assay [6]; 0.273 µg/mL in assay [7]; 0.006 µg/mL in [8]; 0.012 µg/mL in assay [9]; 0.005 µg/mL in assay [10]; 0.052 µg/mL in assay [11]. Further, the values for the IC50, authentic virus neutralization in assay [12] and in assay [5] were 3.82 µg/mL and 0.009 µg/mL, respectively.

As to Known Antibody A (REGN 10987), the IC50 (ug/ml), pseudovirus was > 10 µg/mL in [1]; 0.616 µg/mL in assay [2]; > 10 µg/mL in assay [3]; > 10 µg/mL in assay [4]; 0.002 µg/mL in assay [5].

As for Known Antibody B (REGN 10933), the IC50 (ug/ml), pseudovirus in assay [1] is > 10 µg/mL; in assay [2], > 10 µg/mL; in [3], > 10 µg/mL; in [4] it was > 10 µg/mL; in assay [5], 0.001 µg/mL.

With Known Antibody D (AZD8895), the IC50 (ug/ml), pseudovirus in assay [1] is 0.246 µg/mL; in [2], 1.33 µg/mL; in assay [3] it was 0.1 µg/mL; in assay [4], > 10 µg/mL; in assay [5] it was 0.001 µg/mL.

As to “AZD7442 (a combination of AZD8895 and AZD1061)”, the IC50, pseudoviral neutralization in assay [13] is 0.017 µg/mL; in assay [14] it was > 10 µg/mL; in assay [15] it was 0.025 µg/mL; in [16], 0.008 µg/mL; in [17], 0.065 µg/mL; in [18] it was 0.001 µg/mL. Besides, the IC50, pseudoviral neutralization is 2.73 µg/mL in assay [19] and > 10 µg/mL in assay [20].

Turning to Ly-CoV-555 (antibody), the IC50, authentic virus neutralization in assay [6] was 0.009 µg/mL; in assay [7] it was > 10 µg/mL; in [8], > 10 µg/mL; in assay [9], > 10 µg/mL; in [10] it was 8.31 µg/mL; in assay [11], > 10 µg/mL. In addition, the IC50, authentic virus neutralization is > 10 µg/mL in [12] and 0.006 µg/mL in assay [5].

For ADG10 (antibody), the IC50, authentic virus neutralization in assay [6] was 0.01 µg/mL; in assay [7], > 10 µg/mL; in [8] it was 0.003 µg/mL; in assay [9], 0.011 µg/mL; in [10], 0.026 µg/mL; in [11], > 10 µg/mL. Moreover, the IC50, authentic virus neutralization in assay [12] was > 10 µg/mL; in assay [5] it was 0.006 µg/mL. For the same substance, the IC50, pseudoviral neutralization in assay [21], in assay [22], in [23], in assay [24], in [25] and in assay [26] was > 10 µg/mL in each case. In addition, the IC50, pseudoviral neutralization in [27] is 0.007 µg/mL. The pseudovirus neutralisation IC50 was > 10 µg/mL in assay [21]; > 10 µg/mL in [22]; > 10 µg/mL in assay [24]; > 10 µg/mL in assay [25]; > 10 µg/mL in [26]; 0.007 µg/mL in assay [27]. In addition, the pseudovirus neutralisation IC50 in [28] is > 10 µg/mL.

Regarding Known Antibody J (Ly-CoV16), the IC50 (ug/ml), pseudovirus in assay [1] was > 10 µg/mL; in assay [2], > 10 µg/mL; in assay [3], > 10 µg/mL; in [4], > 10 µg/mL; in [5], 0.014 µg/mL.

In the case of Known Antibody G (ADG20), the IC50 (ug/ml), pseudovirus in assay [1] is 0.348 µg/mL; in assay [2] it was > 10 µg/mL; in assay [3] it was 0.253 µg/mL; in assay [4], > 10 µg/mL; in assay [5] it was 0.003 µg/mL.

Consider AZD7442, for which the IC50, pseudoviral neutralization was 0.065 µg/mL in [21]; 0.232 µg/mL in assay [22]; > 10 µg/mL in assay [23]; 0.806 µg/mL in [24]; 0.008 µg/mL in assay [25]; 0.065 µg/mL in [26]. The same substance registered an IC50, pseudoviral neutralization in assay [27] of 0.001 µg/mL. Moreover, the pseudovirus neutralisation IC50 came out at 0.065 µg/mL in assay [21]; 0.232 µg/mL in [22]; 0.806 µg/mL in assay [24]; 0.008 µg/mL in assay [25]; 0.065 µg/mL in assay [26]; 0.001 µg/mL in assay [27]. This substance had a pseudovirus neutralisation IC50 in assay [28] of 0.017 µg/mL.

Regarding Known Antibody K (S309), the IC50 (ug/ml), pseudovirus in assay [1] was determined as 0.094 µg/mL; in [2], 0.638 µg/mL; in [3] it was 0.138 µg/mL; in assay [4], 0.228 µg/mL; in assay [5] it was 0.587 µg/mL.

Turning to Known Antibody I (Ly-CoV-555), the IC50 (ug/ml), pseudovirus in assay [1] is > 10 µg/mL; in assay [2] it was > 10 µg/mL; in assay [3], > 10 µg/mL; in assay [4], > 10 µg/mL; in assay [5] it was 0.002 µg/mL.

For Known Antibody F (ADG10), the IC50 (ug/ml), pseudovirus is > 10 µg/mL in assay [1]; > 10 µg/mL in assay [2]; > 10 µg/mL in [3]; > 10 µg/mL in assay [4]; 0.007 µg/mL in assay [5].

On to Known Antibody H (ADG30), for which the IC50 (ug/ml), pseudovirus was > 10 µg/mL in [1]; > 10 µg/mL in [2]; > 10 µg/mL in assay [3]; > 10 µg/mL in assay [4]; 0.014 µg/mL in assay [5].

Take LY-CoV1404 (bebtelovimab) (antibody): the IC50, pseudoviral neutralization in [13] was 0.002 µg/mL; in assay [14], 0.001 µg/mL; in assay [15] it was 0.018 µg/mL; in [16] it was 0.001 µg/mL; in assay [17] it was 0.002 µg/mL; in assay [18], 0.001 µg/mL. Further, the values for the IC50, pseudoviral neutralization in assay [19] and in assay [20] were > 10 µg/mL and 0.002 µg/mL, respectively.
